Assays:
[1] = molecular target: r244 rabbit anti-human TnTuORF antiserum; experiment: competitive radioimmunoassay with r244 and 125I-TnTuORF(Tyr) tracer
[2] = molecular target: r244 rabbit anti-human TnTuORF antiserum; experiment: competitive radioimmunoassay, TnTuORF standard against 125I-TnTuORF(Tyr) tracer for r244

Cross reactivity with TnTuORF antiserum (%) [1]: 100%
ED50 [2]: 0.458 µg/mL
Binder: MAPEGWVIVVIS [Synthetic human Troponin T upstream open reading frame (TnTuORF) peptide]

Reference: US9784749
